Data: PMC11009875

How the values were obtained:
[1] = target: microtubules (bovine tubulin, Taxol-stabilised) (bovine) (UniProt Q6B856); test: optical trapping, unloaded single molecule bead assay with video tracking
[2] = target: microtubules (bovine tubulin, Taxol-stabilised) (bovine) (UniProt Q6B856); test: optical trapping, rupture assay
[3] = target: subtilisin-digested microtubules (E-hook removed) (bovine) (UniProt Q6B856); test: optical trapping, rupture assay

UniProt Q6B856, sequence (Q6B856 whole entry, looked up): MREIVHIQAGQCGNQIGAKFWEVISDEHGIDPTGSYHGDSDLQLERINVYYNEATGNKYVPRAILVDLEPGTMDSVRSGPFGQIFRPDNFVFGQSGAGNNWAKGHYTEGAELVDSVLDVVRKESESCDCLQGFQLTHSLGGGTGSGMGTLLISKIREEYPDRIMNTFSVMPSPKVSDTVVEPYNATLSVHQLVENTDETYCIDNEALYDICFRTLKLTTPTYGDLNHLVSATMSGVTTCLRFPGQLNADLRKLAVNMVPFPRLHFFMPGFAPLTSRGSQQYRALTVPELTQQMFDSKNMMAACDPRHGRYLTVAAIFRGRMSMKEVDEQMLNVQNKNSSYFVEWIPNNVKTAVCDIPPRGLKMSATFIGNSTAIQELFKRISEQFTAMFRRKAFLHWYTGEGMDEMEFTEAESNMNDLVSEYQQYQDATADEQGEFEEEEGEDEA

percent of beads binding [1]	bond lifetime (double Gaussian, first population) [2]	bond lifetime (double Gaussian, second population) [2]	force at rupture (first population) [2]	force at rupture (second population) [2]	lifetime time constant k^-1 (single exponential fit) [2]	bond lifetime (single Gaussian) [3]	Binder
11%							FL-HSET (full-length kinesin-14 HSET/KIFC1) (natural protein) MDPQRSPLLEVKGNIELKRPLIKAPSQLPLSGSRLKRRPDQMEDGLEPEKKRTRGLGATTKITTSHPRVPSLTTVPQTQGQTTAQKVSKKTGPRCSTAIATGLKNQKPVPAVPVQKSGTSGVPPMAGGKKPSKRPAWDLKGQLCDLNAELKRCRERTQTLDQENQQLQDQLRDAQQQVKALGTERTTLEGHLAKVQAQAEQGQQELKNLRACVLELEERLSTQEGLVQELQKKQVELQEERRGLMSQLEEKERRLQTSEAALSSSQAEVASLRQETVAQAALLTEREERLHGLEMERRRLHNQLQELKGNIRVFCRVRPVLPGEPTPPPGLLLFPSGPGGPSDPPTRLSLSRSDERRGTLSGAPAPPTRHDFSFDRVFPPGSGQDEVFEEIAMLVQSALDGYPVCIFAYGQTGSGKTFTMEGGPGGDPQLEGLIPRALRHLFSVAQELSGQGWTYSFVASYVEIYNETVRDLLATGTRKGQGGECEIRRAGPGSEELTVTNARYVPVSCEKEVDALLHLARQNRAVARTAQNERSSRSHSVFQLQISGEHSSRGLQCGAPLSLVDLAGSERLDPGLALGPGERERLRETQAINSSLSTLGLVIMALSNKESHVPYRNSKLTYLLQNSLGGSAKMLMFVNISPLEENVSESLNSLRFASKVNQCVIGTAQANRK
	0.29 s	1 s	2.1 pN	5.6 pN	0.23 s	0.22 s	HSET-ΔM (no motor; EGFP-HSET aa 1-304, tail-stalk) (domain or fragment) MDPQRSPLLEVKGNIELKRPLIKAPSQLPLSGSRLKRRPDQMEDGLEPEKKRTRGLGATTKITTSHPRVPSLTTVPQTQGQTTAQKVSKKTGPRCSTAIATGLKNQKPVPAVPVQKSGTSGVPPMAGGKKPSKRPAWDLKGQLCDLNAELKRCRERTQTLDQENQQLQDQLRDAQQQVKALGTERTTLEGHLAKVQAQAEQGQQELKNLRACVLELEERLSTQEGLVQELQKKQVELQEERRGLMSQLEEKERRLQTSEAALSSSQAEVASLRQETVAQAALLTEREERLHGLEMERRRLHNQL
